Data taken from the DeepSol protein solubility set.

Test: soluble on expression in E. coli; label from the status in PepcDB or PDB records

Row | Sequence | soluble on expression in E. coli
1 | MSLGRRAAIYARYSTELQDGRSIDDQVALCREHAARSGLTVVATYDDRAKTSASIFGRDGLARMMEQARARQFDVVIVEALDRLSRDQEDLAHIHKRLSFARIDILTVHEGVADSVSVGLRGLMGTMFLEALKAKTRRGLAGVIRDGRHAGGQTYGYRGVPGEPGKREIVAHEAEIIREIFAAYVEGKSPRTIAGELNARGIAAPRGPKWNASTLNGNPQRGYGILRNPMYDGRLVWNRVTMVRDPDTGRRVNRENPLDARQEVEAEHLRIVPRPLFEAAVRRHAQQAEAVRTGKITKAPPRPFSGLIRCACCGGGMSIHDRCGEAIRIRCSTANESGSCENKARYRLEKIEEAIFLRLRAQLDRPDYLKEFVRVYAEERRRLTETARRDRARLERAAADSRARYMRLVDMMARGLIEGEEADAQVLQAKQAAEIARSELEIASSEDNVVELHPQATAAYTRAIADLSAALQRGDGTFDATSVEALRRIITEITVHPKDEAGDVLVEVRGNMERLLGIGQQIVGGPMVARGGLEPPTPREGHHHHHH | not soluble
2 | MSLGSTTPISIFELVTRLENDSQVANDTKHLFFSGENIGYSEMIGRRPNMEDAIVIRENFREKLHIAAVFDGHSGHSVARSCAASLPDLLRNDETINSDAIKKHLDHINHVLLSSNDLAGSTMQFAIIDMNNNHLTIMQLGDSRSVVYKNDGRVTFYTQEMRPERRSELARLREDRIRLKRLRTGGMLACSTSIGDFQVKGISHEPEVIEMDISDDDRWIVIACDGLWDDVNNESAAKILLDSESPHVAATLLRDLAFQRGSEDNISVIVVDLDLLRNEGHHHHHH | soluble
3 | MSLGTNPFYKIKREGEISLKLKNQLFRLYFLLIYSSLENLQMADKKSPVAVGMTVTPSNQANFVDAGSTTLMNKPGEPTFKLGINLNKVEFKCTEDRKPISVNLKLHNPMAVTVSYKVRCTSADIFRVQPPLGFVKPNETVSIVIWYQNQDKKDAISKNHYFAFYHTTSDGRTARELWANSKVEGVRRLPASFLSTK | not soluble
4 | MSLGTVHARSLEPLPASGPDFGALGEEAEFVEVEPEAKQEILENKDVVVQHVHFDGLGRTKDDIIMYEIRDVFKAKNLIEVMRKSHEAREKLLRLGIFRQVDVLIDTCQGDDALPNGLDVTFEVTELRRLTGSYNTMVGNNEGSMVLGLKLPNLLGRAEKVTFQFSYGTKETSYGLSFFKPQPGNFDRNFSVNLYKVTGQFPWSSLRETDRGVSAEYSFPTWKTSHTVKWEGVWRELGCLSRVASFAVRKESGHSLKSSLSHSMVIDSRNSSILPKRGALLKVNQELAGYTGGDVSFLKEDFELQLNKQLILDTVFSASLWGGMLVPMGDKPSSIADRFYLGGPTSVRGFSMHSVGPQSEGDYLGGEAYWAGGLHLYTPLPFRPGQGGFGELFRTHFFLNAGNLCNLNYGEGPKAHIRKLAECIRWSYGAGIVLRLGNIARLELNYCVPMGVQRGDRICDGVQFGAGIRFLEGHHHHHH | not soluble
5 | MSLGVQPPNFSWVLPGRLAGLALPRLPAHYQFLLDLGVRHLVSLTERGPPHSDSCPGLTLHRLRIPDFCPPAPDQIDRFVQIVDEANARGEAVGVHCALGFGRTGTMLACYLVKERGLAAGDAIAEIRRLRPGSIETYEQEKAVFQFYQRTKEGHHHHHH | soluble
6 | MSLHELDYYLIELDNPFCSDLPKIIAVHDKNLRYTSMGRGSSIEMRTITAYGEILERYCLWNQTPDLTSAFCADKPMLSPEEQVLPISESIDDREVEWKSYYSLSNHQRIFIHRPINSACYSNYFTQTSNGSAVHETEELAINSALEELIERHLFNIFWLFESNILEKSFSSDEIEHAIESGWRLDFYEIRDYKSCTICVMINRSDRRFSKGAMTVGLSFGSDSDACIRAYTECLQTLEAYLAFDKKVNNASLYYLSGKGTSQWQRKINTSLSSTPLSITKSVFEKYSPYMFTEKTNNDLVYCEVVMPHLIPLQYEHERDIRVNPDLLGHLTHRNMCYPIGEGHHHHHH | not soluble
7 | MSLHPHAMPDMGPDMNKVPWMGDEQIAMLVYPGMTVMDLVGPHCMFGSLMGAKIYIVAKSLDPVTSDAGLAIVPTATFGTCPRDLTVLFAPGGTDGTLAAASDAETLAFMADRGARAKYITSVCSGSLILGAAGLLKGYKATSHWSCRDALAGFGAIPTEARVVRDRNRITGAGVTAGLDFGLSMVAELRDQTYAECAQLMSEYDPDPPFNAGSMKTAPAHVRTAMIELVAEFTKKADALAGFPKEGHHHHHH | soluble
8 | MSLIAPVLKGKGVLITRAKEQASSLSRLIEEAGGVPIEVPLLSFIKTMDVYEEVGASIQSYEWIVFTSANAVRFFFNTWPRQELKKLPSIAAVGSSTQRELSRYGISVDLMPNEYVAESLVETMVKRLKPCRVLFPKGNLARPTVKVGLETNGFIVDEMTVYETKRPLEAKVMLCEAFQKHRIEIITFTSPSAVDHFVTLLDREFILHEHLLYAYIGPIAAARAKQRGLPVHIVAKTYTGEGLVNAICDFVKEDGEGHHHHHH | soluble
9 | MSLIEKLRNIAIIAHVDHGKTTLVDKLLQQSGTFDSRAETQERVMDSNDLEKERGITILAKNTAIKWNDYRINIVDTPGHADFGGEVERVMSMVDSVLLVVDAFDGPMPQTRFVTKKAFAYGLKPIVVINKVDRPGARPDWVVDQVFDLFVNLDATDEQLDFPIVYASALNGIAGLDHEDMAEDMTPLYQAIVDHVPAPDVDLDGPFQMQISQLDYNSYVGVIGIGRIKRGKVKPNQQVTIIDSEGKTRNAKVGKVLGHLGLERIETDLAEAGDIVAITGLGELNISDTVCDTQNVEALPALSVDEPTVSMFFCVNTSPFSGKEGKFVTSRQILDRLNKKLVHNVALRVEETEDADAFRVSGRGELHLSVLIENMRREGFELAVSRPKVIFREIDGRKQEPYENVTLDVEEQHQGSVMQALGERKGDLKNMNPDGKGRVRLDYVIPSRGLIGFRSEFMTMTSGTGLLYSTFSHYDDVRPGEVGQRQNGVLISNGQGKAVAFALFGLQDRGKLFLGHGAEVYEGQIIGIHSRSNDLTVNCLTGKKLTNMRASGTDEAVVLVPPIRMTLEQALEFIDDDELVEVTPTSIRIRKRHLTENDRRRANRAPKDEGHHHHHH | soluble
10 | MSLIEPDHPDLSIGQQCKLLSIARSSYYYEPKGETEQNLGLMRRIDEQFLETPFFGVRQMTWHLRNDGHLVNEKRIRWLMRLMGLMPIYQKPNTNRPTKGHKTYPYLLRGLRVERPNQVWCSDITYLPMRRGFLYLVAIMDWHTRKVLSWRISNTLEAQFCVDALNEAIHKFGPPEIMNTDQGSQFTSFAWTDRLRRSGVRISPLAHENMRCRAADGRERSVPPLSWFASKPLSGNGQHLHREAVAHPEIRVRLPACLGDRFGDKGGHPEMDDLLQPPAPAFSPRRQATGAGLLAEKEGHHHHHH | not soluble
11 | MSLIGETINKLKVIKESSKRDKSRCKMYECLCECGEVIIVRSSTLRQGKIKSCGCESNKIHSELMRERNTTHGLSSNPMYQRWLGMKQRCYDVNAINYKNYGGRGIEICEEWKNDFKKFYDYMGDPPNENYQIDRINNDGNYEPGNVKWSTRSENSTNIRKKEGHHHHHH | soluble
12 | MSLIITRTPLRITFVGGGTDLPDFYTRHGGSVVSAAINRYIYIIVNKKFDSKIRVSYSRTEIVDKVDEIRHPTVREALRLLELDGGIEILSISDVPSQGTGLGSSSSFLVGLLNALHAYKSEYVSNETLAEEAVKIEREILREAGGKQDQYMAAYGGIDLLQFFQNGEVRVKPIPLNTERLKYLRDNTALLYTGVERSSTDIHTDQISKIDDHIQEYLEMKKLAEEFAVKLYASDIKELGEIMDRNWMLKRKLSGKITNDLIDRLYIRAKELGAYGGKLIGAGGGGFLLFFIDHNKRENLKELGLRQMDYDFDFEGSRIIYYQDREGHHHHHH | soluble
13 | MSLIKLYDNYVFISQEGGESGERLYSKKFREKSVVDVSGLRIGEGLVVAAGPCSVENEAMILDIARSVKAAGADMIRGGAFKPRTSPYSFQGLAEKGIEYLVEAREETGLPIVTEIMNPEYYRYFDRVDMLQVGSRNAQNFDLLRFLGKQKKPVLLKNGMGNTAREWLETAEYILSGGNGNVVLCYRGVRGIENSTRFTMNVGSIIYAKSETHLPICADPSHASGRRDFVESMALASVAAGADMLEIEVHNDPDNALSDSEQQIRPVDLKRIIEKARALKDLLSHEIEGHHHHHH | not soluble
14 | MSLILRRVFIAIGCVLFSPLSQANSSLGEVNIELRGNVVDFTCAVVAGDSNKSVNLGTWPTKQLHAAGDATQPVAFSLKLEGCPPGSASITFSGTPAPGTALLALADTAMAQKLAIEIRDGDQRRLPLEQASKAVDIDNNGNATLKFYANYIALADGVQPGLANADATFLINYNEGGSHHHHHH | soluble
15 | MSLISLSFFPGAKIGVLGLNGAGKSTLLRIMAGIDKDIDGEARPQPGLKVGYLPQEPKLDESKTVREVVEEAVADVAYALKRLDEVYAAYAEPDADFDALAKEQGELEALIQAKNGHNLDNALERAADALRLPEWDAQVKYLSGGERRRVAICRLLLENPDMLLLDEPTNHLDAESVAWLERFLVDYAGTVVAITHDRYFLDNAAGWILELDRGEGIPWQGNYTSWLEQKDARLKQEASQEKARQKTIEKELEWVRQNPKGRQAKSKARMARFEELQNTEHQKRNETNELFIPPGERLGDKVIEVKNLTKSFDGRVLIDDLSFSMPKGAIVGIIGPNGAGKSTLFKMLSGVEKPDSGTIELGDTVKLASVDQFRDSMNDKHTVFQEISEGADIIRINNFEIPARAYCSRFNFKGVDQQKVIGELSGGERNRVHLAKLLKAGGNVLLLDEPTNDLDVETLRALEEALLEFPGCAMVISHDRWFLDRIATHILDYRDEGKVNFYEGNYTEYMEWLKQTLGAQAAEPHRIKYKRITK | not soluble
16 | MSLISPIIRLSHVTFQTSSAARVIKEFVTKYQFHPFAARGLDGGSPCQVALKNGGVVFMVNENTPKTHENSVLLYDFPLQIPFPDTACNVTFEVEDVSGLYHHLVDEGCQLLLPPTELHDDFGSVTYCIVKSVVGNVSHTLIDRTHYRSSFLPGFEYLKNSTHNLSSGNMTEGHHHHHH | not soluble
17 | MSLIYCETERLILRDWHEDDLLPFQKMNANYDVRKYFPSLLSYRRSELDMRTMDAVIKDYGIGLFAVEDKESHQWIGFIGLNYIPETSDYPFKELPLYEIGWRLLPEFWGKGLATEGAKATLKLAEEHQIYDVYSFTAEANKASQRVMEKIGMTVYDHFELPNLSKYHLLKRQVRYYINLRKEGHHHHHH | soluble
18 | MSLKAFGFNQYGNSNVMEELNIPIPKIKPGEVLVKTTAFAINAFDIAVRNGQFRNNVTLLFPTILGTDGVGRIVKLGAGVHDYSIGDDVLARPGIGTYTEYFKVSVDHLGSRPSNYSPYEAAGLPLSGITAYNTLVHIAHVKQGQTVVILGSSGGVGSMLVQMAHALGLYVIGTDAESARETVLNLGASEFGAYDTERVSSKFKSMADILIDATNLGASIAGIQIIKPTGTYVSLTTLPKDRTLKPDVIYRQVIPRREYRDSDAFTTISLMIRNNQLHVPIDHLESFTLDGIRKGQSDVENGSPDGKVIVTLEGHHHHHH | not soluble
19 | MSLKAIAVDMDGTFLDSKKTYDKPRFEAIFTELRNRDITFIAASGNQYAKLKSIFGDRDMYFISENGAVIYKGNELYNYKSFNRQVFQQVVDYLNMNQSIDQLVICGLKSAYILKHTSEAFKEDTRFYYHQLKEIDSLQQLPEDDYVKIAFNINRETHPNVDEEVATQFSNDIKLVSSGHDSIDIIMPNMTKGQALKRLLDKWEMSPSELMAFGDANNDKDMLAFAKHSYVMENSHDEELFNIASAVAPSNDKQGVLTIIEQEVLNKEGHHHHHH | soluble
